As a reminder, the Kd is a measure of binding affinity in units of concentration. A word on the koff: it is the first-order rate constant of dissociation. Usually kon stands for the second-order rate constant of association. By EC50 is commonly meant the concentration giving half of the maximal effect. A low value points to greater potency. The IC50 is the point on the concentration scale where inhibition reaches its midpoint. Low readings indicate greater potency in that assay, high ones weaker potency in that assay.

Changes are numbered by the printed parent chain. In names and notes the source's numbering stands.

Assay [1] has as its target Human LILRB5 ECD recombinant protein with 6×His-tag (human) (UniProt O75023). The assay can be described thus: ELISA: plate coated with LILRB5 ECD recombinant protein, antibody at 0.5 ug/mL (method of example 3.2.1); mean OD450 printed over the bar [continued) I].
The target in assay [2] is Human LILRB1 ECD recombinant protein with 6×His-tag (human) (UniProt Q8NHL6). The assay can be described thus: ELISA: plate coated with LILRB1 ECD recombinant protein, antibody at 0.5 ug/mL (method of example 3.2.1); mean OD450 printed over the bar [continued) F]. In general terms: In an ELISA, binding on a coated surface is turned into a signal by an enzyme label.
The target in assay [3] is 6×His-tagged human LILRB2 ECD recombinant protein (human) (UniProt Q8N423). The experiment in a line: ELISA: plate coated with 6xHis-tagged human LILRB2 ECD, antibody at 0.5 ug/mL, HRP detection antibody; mean OD450 printed over the bar.
The target in assay [4] is Human LILRA4 ECD recombinant protein with 6×His-tag (human) (UniProt P59901). The experiment in a line: ELISA: plate coated with LILRA4 ECD recombinant protein, antibody at 0.5 ug/mL (method of example 3.2.1); mean OD450 printed over the bar [continued) D].
Assay [5] concerns the target Human LILRA5 ECD recombinant protein with 6×His-tag (human) (UniProt A6NI73). The assay can be described thus: ELISA: plate coated with LILRA5 ECD recombinant protein, antibody at 0.5 ug/mL (method of example 3.2.1); mean OD450 printed over the bar [continued) E].
The target of assay [6] is Human LILRA2 ECD recombinant protein with His-tag (human) (UniProt Q8N149). The experiment in a line: ELISA: plate coated with LILRA2 ECD recombinant protein, antibody at 0.5 ug/mL (method of example 3.2.1); mean OD450 printed over the bar [continued) B].
The target of assay [7] is Human LILRB3 ECD recombinant protein with 6×His-tag (human) (UniProt O75022). The experiment in a line: ELISA: plate coated with LILRB3 ECD recombinant protein, antibody at 0.5 ug/mL (method of example 3.2.1); mean OD450 printed over the bar [continued) G].
Assay [8] concerns the target Human LILRA1 ECD recombinant protein with 6×His-tag (human) (UniProt O75019). The assay can be described thus: ELISA: plate coated with LILRA1 ECD recombinant protein, antibody at 0.5 ug/mL (method of example 3.2.1); mean OD450 printed over the bar.
Assay [9] deals with Human LILRA3 ECD recombinant protein with 6×His-tag (human) (UniProt Q8N6C8). The assay can be described thus: ELISA: plate coated with LILRA3 ECD recombinant protein, antibody at 0.5 ug/mL (method of example 3.2.1); mean OD450 printed over the bar [continued) C].
Assay [10] addresses Human LILRB4 ECD recombinant protein with 6×His-tag (human) (UniProt Q8NHJ6). The experiment in a line: ELISA: plate coated with LILRB4 ECD recombinant protein, antibody at 0.5 ug/mL (method of example 3.2.1); mean OD450 printed over the bar [continued) H].
The target in assay [11] is T1, 6×His-tagged human LILRB2 ECD recombinant protein (human, UniProt Q8N423 22-458, limits assumed).
T1 construct: Bought protein; not shown: 6×His-tag
The assay can be described thus: Bio-Layer Interferometry, hybridoma antibody on human LILRB2. On the technique in general: BLI is a label-free optical method that tracks binding on a fibre tip over time.

In assay [12] the target is T1, 6×His-tagged human LILRB2 ECD …. The assay can be described thus: Octet, 1:1 model.
The target is the same in assay [13]. The assay can be described thus: Octet, 1:1 model; column printed as 'kd (1/s)', heads of c4 and c5 are swapped.
The target is the same in assay [14]. The assay can be described thus: Octet, 1:1 model; column printed as 'ka (1/Ms)', heads of c4 and c5 are swapped.
In assay [15] the target is T2, Human LILRB2 stably expressed on EL4 cells (EL4/LILRB2) (human, UniProt Q8N423 22-597).
T2 construct: also called EL4-LILRB2 cells; cell membrane human LILRB2
The experiment in a line: FACS on EL4/LILRB2 cells.

Assay [16] addresses T2, Human LILRB2 stably expressed on EL4 …. The assay can be described thus: competitive FACS, blockade of HLA-G binding to LILRB2 on cells.
Description: The blocking activities were determined by quantitating the blockade of the ligands binding to EL4/LILRB2 cells.
In assay [17] the target is T1, 6×His-tagged human LILRB2 ECD …. The assay can be described thus: Biacore, 1:1 model; column printed as 'kd (1/s)', heads of c4 and c5 are swapped. (In general: SPR reads the build-up and loss of mass on a sensor chip optically.)
The target is the same in assay [18]. The assay can be described thus: Biacore, 1:1 model.
Assay [19] has the same target. The experiment in a line: Biacore, 1:1 model; column printed as 'ka (1/Ms)', heads of c4 and c5 are swapped.

T2 sequence (Q8N423 22-597 limits assumed): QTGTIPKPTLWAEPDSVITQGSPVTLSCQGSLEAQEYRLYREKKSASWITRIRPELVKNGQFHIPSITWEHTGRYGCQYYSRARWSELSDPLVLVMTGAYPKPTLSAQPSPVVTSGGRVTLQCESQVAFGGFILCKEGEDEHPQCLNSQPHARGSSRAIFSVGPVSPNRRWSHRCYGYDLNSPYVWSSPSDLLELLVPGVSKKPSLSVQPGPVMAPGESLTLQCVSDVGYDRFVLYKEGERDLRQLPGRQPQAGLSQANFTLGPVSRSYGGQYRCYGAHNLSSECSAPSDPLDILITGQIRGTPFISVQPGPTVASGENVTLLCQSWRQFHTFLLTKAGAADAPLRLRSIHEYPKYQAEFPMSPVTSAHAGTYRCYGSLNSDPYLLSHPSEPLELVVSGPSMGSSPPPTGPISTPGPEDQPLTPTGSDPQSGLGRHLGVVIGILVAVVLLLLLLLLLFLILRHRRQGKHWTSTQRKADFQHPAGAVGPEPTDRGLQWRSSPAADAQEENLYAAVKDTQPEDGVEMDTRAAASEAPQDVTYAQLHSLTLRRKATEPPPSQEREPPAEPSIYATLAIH
T1 sequence (Q8N423 22-458 limits assumed): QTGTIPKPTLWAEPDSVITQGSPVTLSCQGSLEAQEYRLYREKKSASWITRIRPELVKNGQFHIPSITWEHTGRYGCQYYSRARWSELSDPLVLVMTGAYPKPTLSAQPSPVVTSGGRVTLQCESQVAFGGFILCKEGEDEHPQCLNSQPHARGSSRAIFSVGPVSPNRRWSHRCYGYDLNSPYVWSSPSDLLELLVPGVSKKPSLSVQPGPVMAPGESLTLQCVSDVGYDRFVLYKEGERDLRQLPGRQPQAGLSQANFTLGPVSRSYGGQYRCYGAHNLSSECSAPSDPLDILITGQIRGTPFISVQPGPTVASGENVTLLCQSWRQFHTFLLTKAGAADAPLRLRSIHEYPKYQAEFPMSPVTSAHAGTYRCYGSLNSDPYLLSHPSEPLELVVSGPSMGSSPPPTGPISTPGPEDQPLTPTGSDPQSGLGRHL
Sequence of Human LILRA4 ECD recombinant protein with 6×His-tag (human) (P59901 24-446 limits assumed): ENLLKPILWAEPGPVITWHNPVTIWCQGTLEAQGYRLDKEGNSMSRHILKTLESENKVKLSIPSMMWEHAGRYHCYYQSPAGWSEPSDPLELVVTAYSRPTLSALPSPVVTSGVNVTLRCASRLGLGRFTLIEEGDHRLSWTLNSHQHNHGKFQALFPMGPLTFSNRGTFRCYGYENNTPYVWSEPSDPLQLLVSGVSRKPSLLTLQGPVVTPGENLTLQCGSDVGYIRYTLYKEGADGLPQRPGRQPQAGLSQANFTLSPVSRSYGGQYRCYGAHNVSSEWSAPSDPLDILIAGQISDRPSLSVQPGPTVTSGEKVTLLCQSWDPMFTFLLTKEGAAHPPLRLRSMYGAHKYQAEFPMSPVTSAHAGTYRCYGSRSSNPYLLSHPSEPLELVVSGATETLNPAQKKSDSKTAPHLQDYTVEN
Sequence of Human LILRB1 ECD recombinant protein with 6×His-tag (human) (Q8NHL6 24-458 limits assumed): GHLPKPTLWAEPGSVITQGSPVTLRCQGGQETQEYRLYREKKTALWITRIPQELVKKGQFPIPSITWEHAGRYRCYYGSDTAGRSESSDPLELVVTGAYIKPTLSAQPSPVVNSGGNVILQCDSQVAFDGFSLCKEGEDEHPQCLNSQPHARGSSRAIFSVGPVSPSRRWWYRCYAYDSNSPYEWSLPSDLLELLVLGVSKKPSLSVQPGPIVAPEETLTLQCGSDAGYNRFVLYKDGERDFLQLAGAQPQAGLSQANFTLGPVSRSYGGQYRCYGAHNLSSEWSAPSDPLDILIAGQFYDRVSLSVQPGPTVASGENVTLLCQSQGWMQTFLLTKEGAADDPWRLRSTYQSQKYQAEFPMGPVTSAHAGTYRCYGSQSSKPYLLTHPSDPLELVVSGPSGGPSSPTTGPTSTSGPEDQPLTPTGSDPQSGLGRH
Sequence of Human LILRA3 ECD recombinant protein with 6×His-tag (human) (Q8N6C8 24-439 limits assumed, form in doubt): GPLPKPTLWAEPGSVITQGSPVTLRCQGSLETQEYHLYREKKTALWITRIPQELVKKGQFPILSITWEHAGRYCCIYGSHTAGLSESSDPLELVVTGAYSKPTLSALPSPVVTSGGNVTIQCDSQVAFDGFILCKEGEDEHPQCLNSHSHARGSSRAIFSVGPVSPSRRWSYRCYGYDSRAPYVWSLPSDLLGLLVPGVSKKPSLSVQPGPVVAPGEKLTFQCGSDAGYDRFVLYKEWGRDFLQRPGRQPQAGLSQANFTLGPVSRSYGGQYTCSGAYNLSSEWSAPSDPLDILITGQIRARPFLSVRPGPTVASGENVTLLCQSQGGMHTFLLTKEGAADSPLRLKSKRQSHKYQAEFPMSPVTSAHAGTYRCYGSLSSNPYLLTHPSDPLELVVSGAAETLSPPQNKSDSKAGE
Sequence of Human LILRA1 ECD recombinant protein with 6×His-tag (human) (O75019 17-461 limits assumed): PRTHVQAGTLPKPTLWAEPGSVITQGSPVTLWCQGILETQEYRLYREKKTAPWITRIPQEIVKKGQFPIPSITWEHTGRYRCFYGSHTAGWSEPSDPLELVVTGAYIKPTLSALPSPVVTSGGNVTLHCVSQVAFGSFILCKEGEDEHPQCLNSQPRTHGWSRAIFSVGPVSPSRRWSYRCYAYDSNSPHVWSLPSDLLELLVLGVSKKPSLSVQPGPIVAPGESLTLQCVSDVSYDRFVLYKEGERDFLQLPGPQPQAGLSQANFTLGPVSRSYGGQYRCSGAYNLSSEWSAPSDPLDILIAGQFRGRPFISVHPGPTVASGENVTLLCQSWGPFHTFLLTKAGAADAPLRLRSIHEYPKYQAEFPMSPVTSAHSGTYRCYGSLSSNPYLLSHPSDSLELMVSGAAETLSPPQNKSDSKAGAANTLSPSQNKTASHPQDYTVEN
Sequence of Human LILRA5 ECD recombinant protein with 6×His-tag (human) (A6NI73 42-268 limits assumed, form in doubt): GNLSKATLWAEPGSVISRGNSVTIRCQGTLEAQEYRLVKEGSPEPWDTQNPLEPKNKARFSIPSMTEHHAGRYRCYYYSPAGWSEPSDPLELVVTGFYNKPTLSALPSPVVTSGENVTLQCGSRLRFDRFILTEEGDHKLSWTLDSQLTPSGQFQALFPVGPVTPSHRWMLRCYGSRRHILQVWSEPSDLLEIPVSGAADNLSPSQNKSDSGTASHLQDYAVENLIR
Sequence of Human LILRB5 ECD recombinant protein with 6×His-tag (human) (O75023 24-458 limits assumed): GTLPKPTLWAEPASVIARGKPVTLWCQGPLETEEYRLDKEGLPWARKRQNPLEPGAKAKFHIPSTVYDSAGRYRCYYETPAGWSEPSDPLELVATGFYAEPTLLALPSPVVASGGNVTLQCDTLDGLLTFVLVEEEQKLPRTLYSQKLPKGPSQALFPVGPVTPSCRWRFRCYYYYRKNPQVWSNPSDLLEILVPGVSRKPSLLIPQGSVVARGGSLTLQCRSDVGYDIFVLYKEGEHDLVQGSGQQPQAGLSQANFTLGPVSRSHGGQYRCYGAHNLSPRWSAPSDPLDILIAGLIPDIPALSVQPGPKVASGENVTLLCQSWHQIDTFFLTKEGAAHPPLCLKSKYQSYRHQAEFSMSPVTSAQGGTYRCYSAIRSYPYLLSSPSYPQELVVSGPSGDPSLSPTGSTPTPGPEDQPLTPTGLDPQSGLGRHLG
Sequence of 6×His-tagged human LILRB2 ECD recombinant protein (human) (Q8N423 22-458 limits assumed): as the sequence (Q8N423 22-458 limits assumed) above
Sequence of Human LILRA2 ECD recombinant protein with His-tag (human) (Q8N149 24-449 limits assumed): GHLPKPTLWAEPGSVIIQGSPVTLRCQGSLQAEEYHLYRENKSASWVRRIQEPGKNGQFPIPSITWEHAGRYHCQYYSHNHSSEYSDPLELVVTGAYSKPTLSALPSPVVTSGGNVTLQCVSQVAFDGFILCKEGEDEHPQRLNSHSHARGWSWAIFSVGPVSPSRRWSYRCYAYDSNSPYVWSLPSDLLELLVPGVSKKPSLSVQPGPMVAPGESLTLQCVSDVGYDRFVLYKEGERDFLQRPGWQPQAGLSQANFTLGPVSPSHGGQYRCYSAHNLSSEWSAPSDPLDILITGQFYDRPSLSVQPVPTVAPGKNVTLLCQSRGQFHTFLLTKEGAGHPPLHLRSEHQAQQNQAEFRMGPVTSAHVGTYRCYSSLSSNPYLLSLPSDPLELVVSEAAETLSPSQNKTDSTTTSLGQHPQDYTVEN

hIgG4 iso (antibody): the OD450 in [1] stood at 0.08; in assay [2] it was 0.08; in [3] it was 0.08; in assay [4], 0.16; in assay [5] it was 0.08; in [6], 0.07. Moreover, the OD450 in [7] amounted to 0.08; in assay [8] it was 0.15; in assay [9], 0.08; in [10] it was 0.14.

B1: monoclonal antibody secreted by hybridoma clone 8G2F10 (antibody, V domains shown)
VH: QVQLQQSGAELAKPGASVKLSCKASGYTFTSYWMYWVKQRPGQGLEWIGHINPSSGYTKYNQKFKDKATLTADKSSSTAYMQLSSLTYEDSAVYYCARDPNWDNYWGQGTTLTVSS
VL: DIVMTQSHKFMSTSVGDRVSITCKASQDVSIAVAWYQQKPGQSPKLLIYSASYRYTGVPDRFTGSGSGTDFTFTISSVQAEDLAVYYCQQHYSTPYTFGGGTKLEIK
notes: Mouse hybridoma antibody
B1: in assay [11], the Kd amounted to 1.35 nM, the koff was determined as 0.00139 s⁻¹ and the kon amounted to 1.04e+06 M⁻¹ s⁻¹.

B2: hu043.04 (antibody, V domains shown)
VH: QVQLVQSGAEVKKPGASVKVSCKASGYTFTSYWMYWVRQAPGQGLEWIGHINPSSGYTKYNQKFKDRATLTADTSTSTAYMELSSLRSEDTAVYYCARDPNWDNYWGQGTTVTVSS
VL: DIQMTQSPSSLSASVGDRVTITCKASQDVSIAVAWYQQKPGKAPKLLIYSASYRYTGVPSRFSGSGSGTDFTFTISSLQPEDIATYYCQQHYSTPYTFGGGTKLEIK
notes: Humanized human IgG4 antibody with S228P in the constant region; also called hu043VH6 / hu043VL2
In the case of B2, the Kd in [12] came out at 3.78 nM. In addition, the kon in assay [13] stood at 488000 M⁻¹ s⁻¹. In addition, the koff in assay [14] stood at 0.00185 s⁻¹. Also, in assay [15], it took 0.43 nM to reach a half-maximal effect (EC50) and the “TOP MFI” value was 45000 MFI. For the same molecule, in [16], the IC50 amounted to 0.11 nM and the “TOP Blocking (%)” value is 100%.

B3: hu043.08 (antibody, V domains shown)
VH: B2 VH with R67K, T74K, V112L
VL: B2 VL with L11M, L78V
notes: Humanized human IgG4 antibody with S228P in the constant region; also called hu043VH10 / hu043VL1
As for B3, the kon in assay [17] turned out to be 2.21e+06 M⁻¹ s⁻¹. Further, the Kd in assay [18] was 1.71 nM. Moreover, the koff in assay [19] was determined as 0.00378 s⁻¹. In assay [16], the IC50 is 0.19 nM and the “TOP Blocking (%)” value stood at 100%.

B4: hu043.06 (antibody, V domains shown)
VH: B2 VH with V5Q, V20L, A40R
VL: B2 VL
notes: Humanized human IgG4 antibody with S228P in the constant region; also called hu043VH8 / hu043VL2
With B4, the Kd in [12] stood at 3.63 nM. In assay [13], the kon was determined as 512000 M⁻¹ s⁻¹. Further, in assay [14], the koff was 0.00186 s⁻¹. In addition, in [15], the EC50 came to 0.4 nM and the “TOP MFI” value was determined as 45700 MFI. Moreover, in [16], the IC50 was found to be 0.11 nM and the “TOP Blocking (%)” value came to 100%.

B5: hu043.01 (antibody, V domains shown)
VH: B2 VH
VL: B2 VL with Q3V, T20S, S60D
notes: Humanized human IgG4 antibody with S228P in the constant region; also called hu043VH6 / hu043VL4
As for B5, the Kd in assay [12] is 3.19 nM. The kon in assay [13] stood at 516000 M⁻¹ s⁻¹. Further, the koff in [14] is 0.00164 s⁻¹. Besides, in [15], the EC50 is 0.42 nM and the “TOP MFI” value came to 45800 MFI. Besides, in [16], the IC50 came to 0.11 nM and the “TOP Blocking (%)” value came out at 100%.

B6: hu043.07 (antibody, V domains shown)
VH: B2 VH with R67K, T74K
VL: B2 VL with L11M, L78V
notes: Humanized human IgG4 antibody with S228P in the constant region; also called hu043VH9 / hu043VL1
B6: in assay [17], the kon came to 2.25e+06 M⁻¹ s⁻¹. The Kd in [18] was 1.68 nM. Also, the koff in assay [19] was determined as 0.00379 s⁻¹. For the same molecule, in [16], the IC50 is 0.19 nM and the “TOP Blocking (%)” value worked out at 100%.

B7: hu043.02 (antibody, V domains shown)
VH: B2 VH with A68V, L70M, A79V
VL: B2 VL with Q3V, T20S, S60D
notes: Humanized human IgG4 antibody with S228P in the constant region; also called hu043VH7 / hu043VL4
Regarding B7, the Kd in [12] was 3.57 nM. For the same molecule, in [13], the kon was 517000 M⁻¹ s⁻¹. Moreover, the koff in assay [14] was 0.00184 s⁻¹. Also, in [15], the EC50 is 0.35 nM and the “TOP MFI” value amounted to 45700 MFI. In [16], the IC50 amounted to 0.1 nM and the “TOP Blocking (%)” value is 100%.

B8: hu043.05 (antibody, V domains shown)
VH: B2 VH with A68V, L70M, A79V
VL: B2 VL
notes: Humanized human IgG4 antibody with S228P in the constant region; also called hu043VH7 / hu043VL2
On to B8, for which, in [12], the Kd was found to be 3.9 nM. In assay [13], the kon came out at 501000 M⁻¹ s⁻¹. For the same molecule, in [14], the koff was found to be 0.00199 s⁻¹. Further, in assay [15], the midpoint of the response, the EC50, lay at 0.42 nM and the “TOP MFI” value was 45100 MFI. In assay [16], the IC50 was 0.09 nM and the “TOP Blocking (%)” value came out at 100%.

B9: hu043.03 (antibody, V domains shown)
VH: B2 VH with V5Q, V20L, A40R
VL: B2 VL with Q3V, T20S, S60D
notes: Humanized human IgG4 antibody with S228P in the constant region; also called hu043VH8 / hu043VL4
Regarding B9, in assay [12], the Kd is 5.22 nM. Also, the kon in assay [13] amounted to 466000 M⁻¹ s⁻¹. For the same molecule, the koff in assay [14] worked out at 0.00243 s⁻¹. In assay [15], a half-maximal response (EC50) required 0.41 nM and the “TOP MFI” value came out at 46300 MFI. In [16], the IC50 amounted to 0.1 nM and the “TOP Blocking (%)” value is 100%.

The values above are taken from patent US20260008847A1 (ELPISCIENCE SUZHOU BIOPHARMA, published 2026).
